Consider four molecules from US20170168078A1 (EISAI R AND D MANAGEMENT, published 2017).

Assay [1] addresses T1, human FRα expressed on CHO cells (GPI-linked) (human, UniProt P15328 25-234).
T1 construct: CHO/CHOK1 cells stably expressing GPI-linked human FRα; They were used intact in flow cytometry and as nonreduced whole cell lysates in the western blots; also called native FRα; CHO-FRα
The experiment in a line: flow cytometry on CHO cells expressing FRα, antibody 1 µg/mL, FITC secondary. As to the method: Flow cytometry studies were conducted to assess the ability of selected FRα-specific antibodies to bind to the native protein. For these studies Chinese hamster ovary (CHO) cells expressing FRα, were harvested, washed, and re-suspended in ice-cold growth media (RPMI supplemented with 10% FBS). Cells were incubated for 1 hour on ice with 9F3, 19D4, 24F12, or 26B3 (1 μg/mL), washed and then incubated with FITC-conjugated secondary antibodies [dilution 1:100] (Southern Biotech, Birmingham, Ala.). Prior to analysis, cells were labeled with 7-amino-actinomycin D (7-AAD) (BD Biosciences, Franklin Lakes, N.J.) for the exclusion of nonviable cells. CHO cells not expressing FRα were also subjected to the same experimental procedures, as a negative control. Cells were analyzed on an […]™ Flow Cytometer (GUAVA® Technologies, Hayward, Calif.). The data provided in Table 4 indicate that all four antibodies are capable of binding native FRα.
A general note: Flow cytometry measures light scatter and fluorescence of single cells or particles in a stream.

For assay [2], the target named is T2, human folate receptor beta (FRβ) expressed on CHO cells (human, UniProt P14207 17-230).
T2 construct: whole, on cells; also called CHO-FRβ
T2 sequence (P14207 17-230): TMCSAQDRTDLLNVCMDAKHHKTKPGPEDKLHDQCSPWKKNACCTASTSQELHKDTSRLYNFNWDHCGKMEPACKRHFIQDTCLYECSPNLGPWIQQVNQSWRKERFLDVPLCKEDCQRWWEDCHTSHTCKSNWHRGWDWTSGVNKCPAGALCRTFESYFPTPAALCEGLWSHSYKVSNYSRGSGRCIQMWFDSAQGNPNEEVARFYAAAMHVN
The experiment in a line: western blot of nonreduced whole cell lysates of CHO cells, SDS-PAGE.

Assay [3] concerns the target T3, purified recombinant human FRβ.
T3 construct: also called human folate receptor beta (purified, secreted form)
The experiment in a line: western blot of 0.5 µg purified protein per lane, reduced and nonreduced, SDS-PAGE. As to the method:
(§1) Experiments were conducted to determine whether any of the FRα-specific antibodies, described above, could recognize denatured forms of FRα. […] Lysates were pre-cleared by centrifugation at 13,000 rpm for 15 minutes to remove debris. For reduced and denatured samples, equal amounts of protein (20 μg) were boiled for 10 minutes in NUPAGE® LDS sample buffer (Invitrogen) containing 5% β-mercaptoethanol+40 mM DTT. […] The membrane was blocked in PBST+ 5% non-fat milk for lh at room temperature after which time, the membrane was washed twice with PBST. Immunoblotting was conducted using purified mouse monoclonal antibodies 9F3, 19D4, 24F12, or 26B3 (1 μg/mL) specific for FRα, which were detected with a goat-anti-mouse HRP-conjugated antibody and visualized using SUPERSIGNAL™ West Pico chemiluminescent substrate (Pierce, Rockford, Ill.). Luminescence was visualized using the Omega 12iC molecular imaging system (Ultra-Lum, Claremont, Calif.) with image analysis performed using ULTRAQUANT™ 6.0 software (Ultra-Lum).
(§2) Western blot analyses were also performed using purified folate receptor preparations. For these experiments, 0.5 μg of purified human FRα, β, Γ or Δ, produced as described in Example 1, were incubated in 1× SDS-PAGE sample loading buffer (Invitrogen) with or without 20 mM DTT, boiled for 10 min, and electrophoresed on 4-12% gradient SDS-PAGE gels. Protein was transferred to PVDF membrane and blots probed as described above. Gels were run using Benchmark™ prestained protein ladder (NOVEX®). Gels using purified recombinant FR proteins were also visualized via silverstaining to ensure equal amounts of protein were loaded.
(A western blot detects proteins with antibodies after separation by electrophoresis.)

Assay [4] deals with T4, purified recombinant human FRΓ.
T4 construct: also called human folate receptor gamma (purified)
T4 sequence (chain, as listed by the source limits assumed): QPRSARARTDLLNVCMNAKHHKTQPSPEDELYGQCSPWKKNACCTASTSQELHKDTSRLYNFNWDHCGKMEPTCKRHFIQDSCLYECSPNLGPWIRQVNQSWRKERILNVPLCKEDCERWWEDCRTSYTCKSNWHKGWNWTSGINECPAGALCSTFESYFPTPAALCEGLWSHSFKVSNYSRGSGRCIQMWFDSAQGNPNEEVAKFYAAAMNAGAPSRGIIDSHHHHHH
The description is as above. As for the experimental part: as §1, §2

Assay [5] has as its target T5, purified recombinant human folate receptor alpha (rh-FRα) (human, UniProt P15328 25-234).
T5 construct: One is secreted from CHO cells, with a human Ig kappa leader and a C-terminal 6x His tag replacing the GPI attachment site; The other is from Sf9 cells, with an N-terminal 6x His tag and the GPI site intact; also called FR-alpha; FOLR1
The assay is described as follows: SPR, BIACORE T100, antibody captured on anti-mouse IgG, rh-FRα 1-30 nM as analyte, single-cycle kinetics, 1:1 fit. As for the experimental part:
Binding characteristics of the purified monoclonal antibodies to FRα were determined by surface plasmon resonance (SPR) experiments. All of the SPR experiments were performed at 25° C. using a BIACORE™ T100 with research grade CM5 chips (GE Healthcare), as specified by the manufacturer. Initially, anti-mouse IgG provided in the mouse antibody capture kit (GE Healthcare) was immobilized by amide coupling to CM5 sensor chips. Mouse anti-FRα monoclonal antibodies (26B3, 24F12, 19D4, or 9F3) were captured on individual flow cells per binding cycle, while the fourth flow cell was used as a reference. Binding experiments were performed with HBS-P (GE Healthcare) as running buffer and at a flow rate of 30 μL/min. Each monoclonal antibody sample (0.5 μg/mL) was injected for 3 minutes to capture the antibody. Various concentrations of purified recombinant human FRα (rh-FRα) (1 nM-30 nM) were then injected over the FRα-specific and reference surfaces for 3 minutes to record binding sensograms using a single-cycle kinetics method. The dissociation profile was monitored for 25 minutes. In between bindings, the surface was regenerated with a 30 μl injection of 10 mM glycine (pH 1.7). The sensograms were processed and fitted to a 1:1 Langmuir binding model using BIACORE™ T100 evaluation software (version 2.0.1).
(SPR reads the build-up and loss of mass on a sensor chip optically.)

T3 sequence (chain, as listed by the source limits assumed): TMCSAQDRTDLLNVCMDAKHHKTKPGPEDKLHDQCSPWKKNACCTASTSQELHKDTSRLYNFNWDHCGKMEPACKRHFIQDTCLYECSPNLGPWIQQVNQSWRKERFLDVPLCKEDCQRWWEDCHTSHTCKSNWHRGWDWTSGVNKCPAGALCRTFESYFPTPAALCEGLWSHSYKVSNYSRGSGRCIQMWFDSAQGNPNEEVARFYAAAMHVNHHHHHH
T1 sequence (P15328 25-234 limits assumed): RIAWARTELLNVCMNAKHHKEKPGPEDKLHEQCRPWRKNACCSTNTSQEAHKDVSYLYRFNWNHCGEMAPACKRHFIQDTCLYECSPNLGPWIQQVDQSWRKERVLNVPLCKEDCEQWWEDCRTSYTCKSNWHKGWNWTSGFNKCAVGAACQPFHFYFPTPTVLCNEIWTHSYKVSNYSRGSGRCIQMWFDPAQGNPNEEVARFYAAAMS
T5 sequence (P15328 25-234 limits assumed): as above

B1: Monoclonal antibody 26B3.F2 (antibody, mouse IgG1, V domains shown)
VH: GPELVKPGASVKISCKASDYSFTGYFMNWVMQSHGKSLEWIGRIFPYNGDTFYNQKFKGRATLTVDKSSSTAHMELRSLASEDSAVYFCARGTHYFDYWGQGTTLTVSS
VL: PASLSASVGETVTITCRTSENIFSYLAWYQQKQGISPQLLVYNAKTLAEGVPSRFSGSGSGTQFSLKINSLQPEDFGSYYCQHHYAFPWTFGGGSKLEIKR
notes: also called MAb 26B3; ATCC PTA-11885
By Kd is commonly meant the concentration at which binding is half-saturated. Broadly, the koff is a measure of how fast the partners let go of each other. Usually kon stands for the second-order rate constant of association. Take B1: the “Geometric Mean” value in assay [1] stood at 854. Besides, the binding result in assay [2], in assay [3] and in assay [4] was “no binding (tested: 1 µg/mL)” each time. Further, the dissociation constant Kd in assay [5] is 27.3 pM. In assay [5], the koff is 1.43e-05 s⁻¹. The kon in assay [5] came out at 524000 M⁻¹ s⁻¹.

B2: Monoclonal antibody 24F12.B1 (antibody, mouse IgG1, V domains shown)
VH: SGGGLVRPGGSLKLSCAASGFTFSSYAMSWVRQSPEKRLEWVAEIGSGGSYTYYPDTVTGRFTISRDNAKSTLYLEMSSLRSEDTAIYYCARETTAGYFDYWGQGTTLTVSS
VL: TSSLSASLGDRVTISCSASQGINNFLNWYQQKPDGTVKLLIYYTSSLHSGVPSRFSGSGSGTDYSLTISNLEPEDIAIYYCQHFSKLPWTFGGGTKLEIKR
notes: also called ATCC PTA-11886
In the case of B2, in assay [1], the “Geometric Mean” value came to 777. Also, the binding result in assay [2], in assay [3] and in assay [4] was “no binding (tested: 1 µg/mL)” throughout. Further, in assay [5], the Kd turned out to be 102 pM. Moreover, the koff in assay [5] came to 3.99e-05 s⁻¹. Moreover, the kon in assay [5] stood at 393000 M⁻¹ s⁻¹.

B3: Monoclonal antibody 9F3.H9.H3.H3.B5.G2 (antibody, mouse IgG2a, V domains shown)
VH: ESGPGLVRPSQSLSLTCSVTGYSITSGYYWNWIRQFPGSRLEWMGYIKSDGSNNYNPSLKNRISITRDTSKNQFFLKLNSVTTEDTATYFCTREWKAMDYWGQGTSVTVSS
VL: PAIMSASPGEKVTMTCRASSTVSYSYLHWYQQKSGASPQLWIYGTSNLASGVPARFSGSGSGTSYSLTISSVEAEDAATYYCQQYSGYPLTFGAGTKLELKR
notes: also called ATCC PTA-11887
For the molecule B3, the “Geometric Mean” value in assay [1] turned out to be 760. In addition, the binding result in assay [2] is on record as “no binding (tested: 1 µg/mL)”. Besides, the binding result in assay [3] is listed as “no binding (tested: 1 µg/mL)”. Besides, in assay [5], the Kd was 715 pM, the koff was determined as 0.00031 s⁻¹ and the on-rate (kon) is 434000 M⁻¹ s⁻¹.

B4: Monoclonal antibody 19D4.B7 (antibody, mouse IgG2a, V domains shown)
VH: GAELVKPGASVKLSCTASGFNIKHPYMHWVKQRPDQGLEWIGRIDPANGNTKYDPKFQGKATITADTSSNTAYLQLSSLTSEDTAVYYCGREEVADYTMDYWGQGTSVTVSS
VL: PASLAVSLGQRATISCRASESVDTYGNNFIHWYQQKPGQPPKLLIYLASNLESGVPARFSGSGSRTDFTLTIDPVEADDAATYYCQQNNGDPWTFGGGTKLEIKR
notes: It was labelled with Ru (about 13 labels per IgG) when used as the detector in the ECL assays; also called ATCC PTA-11884
With B4, the “Geometric Mean” value in assay [1] amounted to 1130. Besides, the binding result in assay [3] is listed as “no binding (tested: 1 µg/mL)”. In addition, the binding result in assay [4] was “no binding (tested: 1 µg/mL)”. In assay [5], the Kd was 567 pM, the off-rate (koff) stood at 0.000242 s⁻¹ and the on-rate (kon) was found to be 427000 M⁻¹ s⁻¹.
